For test [1], the target named is hu IGF-1R(ECD)-C3-muIgG1Fc (human; mouse). Nature of the test: ORIGEN competition: antibody vs 1 nM Ru-IGF-1 on IGF-1R(ECD)-C3-muFc beads.
Test [2] shares this target. Nature of the test: ORIGEN competition: antibody vs 2 nM Ru-IGF-2 on IGF-1R(ECD)-C3-muFc beads.

The Ki is a measure of affinity in units of concentration, obtained from inhibition or displacement. Low values mean a stronger hold on the target, high ones a looser hold on the target. Consider “murine anti-IGF-1R antibody 1H7 (Santa Cruz Biotechnology)”, for which, in test [1], the inhibition constant (Ki) turned out to be 16 nM and the Max (%), maximum level of inhibition at 1 µM antibody was found to be 89%. For the same substance, in test [2], the inhibition constant (Ki) is 13.1 nM and the Max (%), maximum level of inhibition at 1 µM antibody was found to be 99%.
In test [1], “murine anti-IGF-1R antibody αIR3 (Calbiochem)” yielded a Ki of 5.3 nM and a Max (%), maximum level of inhibition at 1 µM antibody of 91%.
